Results as given in patent US20250195685A1 (CAPSTAN THERAPEUTICS, published 2025).

B1: CBD1017ch whole antibody (chimeric CT8 antibody) (antibody, V domains shown)
VH: EVQLQQSGPELVKPGASVKISCKASRYTFTDYNLHWVKLSHEKSLEWIGFIYPYNGGTGYNQKFKNKAKLTVDYSSSTAYMELRSLTSVDAAVYYCARDHRYNEGVSFDYWGQGTTLTVSS
VL: NIVLTQSPASLAVSLGQRATISCRASESVDGFGNSFMNWYQQKPGQSPKLLIYLASNLESGVPARFSGSGSRTDFTLTIDPVEADDAATYYCQQNNEDPYTFGGGTKLEIK
notes: Chimeric antibody comprising the variable regions of the donor antibody CT8; detected with anti-human Fc
B2: CBD1033 whole antibody, human IgG1 with Fc-silencing mutations L234A, L235A and P329A (CBD1033-hIgG1-LALAPA) (antibody, V domains shown)
VH: QVQLVQSGAEVKKPGASVKVSCKASRYTFTDYNLHWVRQAPGQGLEWMGFIYPYNGGTGYAQKFQGRVTMTVDTSTSTAYMELSSLRSEDTAVYYCARDHRYNEGVSFDYWGQGTTVTVSS
VL: DIQLTQSPSSLSASVGDRATITCRASESVDGFGNSFMNWYQQKPGKAPKLLIYLASNLESGVPSRFSGSGSGTDFTLTISSVQPEDFATYYCQQNNEDPYTFGQGTKLEIKR
notes: On tLNPs the antibody was SATA-modified or AJICAP-thiolated (CBD1033.29) and conjugated to the LNP; also called CBD1033.3; CBD1033 IgG1

What was measured:
[1] = target: T1, human CD8αα homodimer, recombinant protein (Acro Biosystems) (human, UniProt P01732 22-182); assay: BLI steady state, whole hIgG1-LALAPA antibody on CD8α-His (Ni-NTA sensor), 30 °C
T1 construct: also called CD8αα antigen; biotinylated CD8α recombinant protein (CDA-H82E3)
T1 sequence (P01732 22-182 limits assumed): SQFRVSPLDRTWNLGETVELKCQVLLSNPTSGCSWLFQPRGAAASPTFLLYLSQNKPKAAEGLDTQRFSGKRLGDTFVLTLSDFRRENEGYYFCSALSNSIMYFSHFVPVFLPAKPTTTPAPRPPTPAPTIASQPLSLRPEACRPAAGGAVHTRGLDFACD

[2] = target: T2, cynomolgus macaque CD8αβ heterodimer, recombinant protein (cynomolgus macaque); assay: SPR (Biacore 8K), antibody captured by anti-human Fc, CD8 as analyte, 1:1 fit, 25 °C
T2 construct: In BLI coupled directly to amine-reactive sensor tips; also called cynomolgus CD8αβ heterodimer
Description: (§1) Except for cynomolgus CD8αβ heterodimer, binding was analyzed with a two-fold dilution series of recombinant CD8αα homodimer or CD8αβ heterodimer protein from 200 nM to 6.25 nM. For cynomolgus CD8αβ heterodimer, binding was analyzed with a two-dilution series from 400 nM to 12.5 nM.. The global fitting was performed with a 1:1 fitting model using GatorOne software as described below.
(§2) Surface plasmon resonance (SPR) assays were performed using a Biacore 8K SPR instrument (Cytiva) in a running buffer containing 1×HBS-N(Cytiva) and 0.05% Tween-20 at 25° C. The CBD1033 antibody was captured by anti-human IgG (Fc) antibody (Cytiva) immobilized on a CM5 sensor chip (Cytiva) at a density within 40-50 and 80-100 response units (RU) for kinetic measurements with CD8αα and CD8αp, respectively. To measure the binding kinetics, serial two-fold dilutions of recombinant CD8 protein were prepared in the running buffer were injected into the flow cells at […], with the concentration ranging from 200 to 6.25 nM (successive 1:2 dilutions). The association data was collected for 180 s followed by a 1200 s dissociation step. At the end of each binding cycle, the sensor surface was regenerated with a 3M MgCl₂ buffer. For cynomolgus macaque CD8αβ heterodimer, the binding kinetics were assessed with the same experimental parameters, except the concentration ranges from 400 to 12.5 nM. Sensorgrams were generated, and background-subtracted with the blank running buffer. The binding kinetic parameters were analyzed and determined with a standard 1:1 monovalent binding (Langmuir) model using BIAcore Evaluation software (Cytiva).

[3] = target: T1, human CD8αα homodimer, recombinant …; assay: as above
Description: as §1, §2

[4] = target: T3, cynomolgus macaque CD8αα homodimer, recombinant protein (cynomolgus macaque); assay: as above
T3 construct: also called cynomolgus CD8αα homodimer
Description: as §1, §2

[5] = target: human CD8αβ heterodimer, recombinant protein (human, UniProt P01732 22-182; P10966 22-170, limits assumed); assay: as above
Sequence of human CD8αβ heterodimer, recombinant protein (P01732 22-182 limits assumed, chain 1 of 2): as the sequence (P01732 22-182 limits assumed) above
Sequence of human CD8αβ heterodimer, recombinant protein (P10966 22-170 limits assumed, chain 2 of 2): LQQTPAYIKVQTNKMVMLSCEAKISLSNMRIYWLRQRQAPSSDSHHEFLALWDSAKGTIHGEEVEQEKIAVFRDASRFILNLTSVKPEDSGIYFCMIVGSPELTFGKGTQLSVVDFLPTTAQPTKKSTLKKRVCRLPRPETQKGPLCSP
Description: as §1, §2

[6] = target: T1, human CD8αα homodimer, recombinant …; assay: BLI, whole antibody, steady state dissociation constant (column head x10^-9M)
Description: To assess affinity of whole antibodies, steady state analysis was used as the bivalent nature of both whole antibody and CD8α complicates kinetic analysis. 50 nM CD8α-His (that is, CD8α with a C-terminal oligohistidine tag; Acro) was immobilized on Ni-NTA sensor probes. Binding was analyzed with a three-fold antibody dilutions series: 60 nM, 20 nM, 6.67 nM, 2.22 nM, 0.74 nM, and 0.25 nM. The antigen-loaded sensors were incubated in the diluted solutions to capture the whole IgG antibody for 300 s to record the association phase. Sensors were incubated in the kinetic buffer for 900 s to record the dissociation phase. The spin speed was 1000 rpm for all steps except the antigen loading step which was 400 rpm to control density of the antigen. The temperature of the performed assays was at 30° C. during the association and dissociation phases. The sensor data were baseline subtracted and further analyzed in GatorOne software (version 2.10) to determine the equilibrium dissociation constants (KD) of the antibodies by fitting the signals of the steady states to the 1:1 binding model.

[7] = target: T4, human CD8 on cells (CD8-overexpressing HEK293T cells, SupT1, HPB-ALL, human T cells, transfected HEK293 of … (human, UniProt P01732 22-235)); assay: flow cytometry on HPB-ALL cells; HPB-ALL cells
T4 construct: whole, on cells; also called cell surface CD8
T4 sequence (P01732 22-235): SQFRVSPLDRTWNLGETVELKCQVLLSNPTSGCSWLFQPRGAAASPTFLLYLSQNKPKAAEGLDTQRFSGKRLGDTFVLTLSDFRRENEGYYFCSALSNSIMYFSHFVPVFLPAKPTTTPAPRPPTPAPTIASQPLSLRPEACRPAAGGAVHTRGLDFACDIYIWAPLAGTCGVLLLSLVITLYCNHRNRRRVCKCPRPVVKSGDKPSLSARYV
Description: (§3) To obtain the results shown in FIG. 6, SupT1 (ATCC #CRL-1942) and HPB-ALL (DSMZ; ACC-483) were cultured in RPMI medium supplemented with 10% Fetal Bovine Serum (#97068-085; Avantor). To determine EC₅₀ values of cell binding from the anti-CD8α antibody, 2×10⁵ total cells were transferred to a V bottom 96-well culture plate (Corning). Cells were washed twice with Cell Staining buffer (#420201, Biolegend). The anti-CD8α antibody was diluted in four-fold antibody titration series from 60 μg/mL to […] into Cell Staining buffer. Cells were stained with each diluted antibody solution for 30 minutes on ice. Cells were then washed three times with Cell Staining buffer and primary antibody binding was detected by staining with anti-human Fc BV421 conjugate antibody (#410704, Biolegend) at 1:200 dilution for 30 minutes on ice. eFluor 780 Fixable Viability dye (eBioscience) at a 1:4000 dilution were also included in the detection antibody solutions. […] Flow cytometry data was analyzed by Flowjo 10 (Becton, Dickinson & Company) to measure the geometric median fluorescence intensity (gMFI) of the on-cell binding from each antibody. The gMFI values were normalized with the gMFI measured in the sample stained with only the secondary detection antibody and plotted against the concentration of the added antibodies. […]

[8] = target: T4, human CD8 on cells (CD8-overexpressing …); assay: flow cytometry on SupT1 cells; SupT1 cells
Description: as §3

Binder | Kd [1] [nM] | Kd [2] [nM] | koff [2] [s⁻¹] | kon [2] [M⁻¹ s⁻¹] | Kd [3] [nM] | koff [3] [s⁻¹] | kon [3] [M⁻¹ s⁻¹] | Kd [4] [nM] | koff [4] [s⁻¹] | kon [4] [M⁻¹ s⁻¹] | Kd [5] [nM] | koff [5] [s⁻¹] | kon [5] [M⁻¹ s⁻¹] | Kd [6] [nM] | EC50 [7] [µg/mL] | EC50 [8] [µg/mL]
B1 | 0.58 |  |  |  |  |  |  |  |  |  |  |  |  |  |  | 
B2 |  | 31 | 0.00114 | 36800 | 2.46 | 0.000289 | 117000 | 5.43 | 0.000271 | 50000 | 8.99 | 0.00111 | 124000 | 1.43 | 0.274 | 0.312
